Assay results: the Human Domainome abundance scans (Beltran et al. 2025)
± gives the uncertainty stated by the source.

B1: Tesmin, residues 368 to 403; numbered along this chain, Q9Y4I5 (parent)
chain: KGCNCRRSGCLKNYCECYEAQIMCSSICKCIGCKNY

Variants of: B1
Assay: abundance fitness (aPCA) (normalised: wild type 0, dead -1); higher = more abundant; growth selection in yeast, the domain comes from the species named
Conditions: Homo sapiens

Abundance fitness, by site and new letter:
Q21: D -0.566 ± 0.17; E 0.155 ± 0.11; L -0.26 ± 0.085; W -0.508 ± 0.11; T -0.08 ± 0.16; V -0.472 ± 0.095; H -0.271 ± 0.48; P -0.073 ± 0.11; K -0.065 ± 0.13; C -0.235 ± 0.33; G -0.004 ± 0.078; A -0.127 ± 0.092; N -0.124 ± 0.1; M -0.48 ± 0.14; R 0.061 ± 0.073
Y14: D 0.171 ± 0.11; R 0.01 ± 0.075; N 0.267 ± 0.14; A -0.253 ± 0.077; I -0.09 ± 0.1; C 0.14 ± 0.14; M 0.153 ± 0.1; E 0.013 ± 0.1; P 0.145 ± 0.09; T -0.222 ± 0.1; G 0.096 ± 0.073; Q 0.007 ± 0.092; K -0.02 ± 0.092; W -0.01 ± 0.094; S 0.047 ± 0.095; V -0.082 ± 0.072
I22: L -0.073 ± 0.11; K -0.093 ± 0.14; Q 0.329 ± 0.22; A 0.004 ± 0.097; F -0.088 ± 0.24; C -0.55 ± 0.13; G 0.268 ± 0.073; P -0.043 ± 0.11; S -0.066 ± 0.096; R 0.021 ± 0.073; W -0.365 ± 0.097; N 0.551 ± 0.33; E 0.004 ± 0.13; M -0.423 ± 0.18; T 0.109 ± 0.13; V 0.048 ± 0.093
C17: R -0.444 ± 0.08; Y -0.72 ± 0.17; T -0.689 ± 0.13; V -0.415 ± 0.079; L -0.288 ± 0.096; P -0.312 ± 0.082; E -0.465 ± 0.12; K -0.337 ± 0.12; Q -0.205 ± 0.11; M -0.575 ± 0.12; A -0.36 ± 0.079
C15: G -0.305 ± 0.074; A -0.394 ± 0.077; Q -0.282 ± 0.087; E -0.076 ± 0.1; T -0.382 ± 0.088; P -0.259 ± 0.097; W -0.993 ± 0.11; D -0.04 ± 0.25; H -0.425 ± 0.15; F -0.742 ± 0.13; V -0.65 ± 0.079; M -0.689 ± 0.12; Y -0.658 ± 0.22; R -0.378 ± 0.072; L -0.713 ± 0.093; I -0.809 ± 0.15; K -0.295 ± 0.11; S -0.596 ± 0.11
R6: L 0.204 ± 0.085; F -0.169 ± 0.19; W 0.012 ± 0.081; S 0.303 ± 0.087; N -0.361 ± 0.35; K 0.146 ± 0.1; Q 0.338 ± 0.1; D 0.156 ± 0.14; C 0.036 ± 0.092; A 0.33 ± 0.071; T 0.239 ± 0.085; G 0.151 ± 0.073; E 0.214 ± 0.1; V 0.12 ± 0.073
C5: S -0.342 ± 0.08; M -0.286 ± 0.11; W -0.523 ± 0.079; V -1.24 ± 0.083; E -0.176 ± 0.08; P -0.296 ± 0.1; I -0.936 ± 0.46; A -0.414 ± 0.075; D -0.794 ± 0.24; H 0.066 ± 0.2; G -0.65 ± 0.069; N -0.478 ± 0.21; L -0.455 ± 0.1; Q -0.346 ± 0.095; T -0.431 ± 0.094
M23: A -0.18 ± 0.079
C10: V -0.322 ± 0.075; W -0.418 ± 0.077; A -0.141 ± 0.091; Y -0.439 ± 0.12; T -0.245 ± 0.093; Q -0.208 ± 0.086; K -0.323 ± 0.096; I -1.37 ± 0.47; L -0.414 ± 0.098; S -0.213 ± 0.078; R -0.539 ± 0.071; E 0.004 ± 0.076; N -0.405 ± 0.11; M -0.501 ± 0.11; D -0.105 ± 0.098; P -0.633 ± 0.15
E19: D -0.243 ± 0.12; Q -0.131 ± 0.1; C -0.132 ± 0.091; N -0.351 ± 0.22; L -0.281 ± 0.11; R -0.188 ± 0.084; A -0.107 ± 0.086; P -0.284 ± 0.12; F -0.31 ± 0.29; G -0.043 ± 0.075; K -0.1 ± 0.11; V -0.201 ± 0.1; M -0.18 ± 0.15; S -0.226 ± 0.093; T -0.308 ± 0.1
N4: I -0.31 ± 0.2; C -0.183 ± 0.1; A -0.162 ± 0.078; K -0.314 ± 0.15; D 0.22 ± 0.11; S -0.103 ± 0.093; G -0.103 ± 0.07; V -1.13 ± 0.1; E -0.056 ± 0.082; R -0.16 ± 0.08; M -0.011 ± 0.083; L -0.207 ± 0.077; T -0.186 ± 0.094; Y -0.226 ± 0.092; H -0.199 ± 0.14; P -0.033 ± 0.083
N13: D -0.092 ± 0.12; L -0.266 ± 0.085; E -0.061 ± 0.084; V -0.619 ± 0.08; G -0.045 ± 0.071; W -0.755 ± 0.1; I -0.398 ± 0.17; Q -0.061 ± 0.1; T -0.297 ± 0.24; F -0.613 ± 0.23; H -0.871 ± 0.41; S -0.181 ± 0.074; M -0.556 ± 0.13; R -0.218 ± 0.068; K -0.075 ± 0.085; C -0.558 ± 0.17; Y -0.51 ± 0.26; P -0.258 ± 0.095
R7: I -0.336 ± 0.14; T 0.047 ± 0.14; W -0.255 ± 0.073; L -0.021 ± 0.077; G 0.268 ± 0.073; C -0.401 ± 0.14; M 0.214 ± 0.18; A 0.248 ± 0.075; K 0.039 ± 0.17; Q 0.282 ± 0.12; E 0.398 ± 0.096; P -0.103 ± 0.085; Y 0.035 ± 0.19
E16: R -0.341 ± 0.074; G -0.086 ± 0.075; V -0.329 ± 0.075; S -0.57 ± 0.1; Q -0.034 ± 0.082; H -0.418 ± 0.43; W -0.466 ± 0.11; P -0.327 ± 0.089; C -0.677 ± 0.12; A -0.256 ± 0.078; M -0.218 ± 0.1; T -0.39 ± 0.15; L -0.441 ± 0.11; Y -0.577 ± 0.14; N -0.763 ± 0.1; K -0.502 ± 0.13; F -0.453 ± 0.38; D -0.522 ± 0.28
K12: M -0.323 ± 0.11; Q -0.076 ± 0.13; L -0.316 ± 0.079; R -0.359 ± 0.072; S -0.181 ± 0.09; I -0.405 ± 0.27; E 0.031 ± 0.1; Y -0.831 ± 0.26; A -0.05 ± 0.085; T -0.201 ± 0.12; C -0.622 ± 0.11; V -0.014 ± 0.086; W -0.643 ± 0.1; F -0.01 ± 0.28; N -0.46 ± 0.24; P -0.077 ± 0.078; G -0.079 ± 0.073; H -0.217 ± 0.2
C3: G -0.236 ± 0.07; A -0.33 ± 0.073; S -0.702 ± 0.11; M -0.194 ± 0.1; H -0.363 ± 0.21; P -0.577 ± 0.11; Y -0.056 ± 0.27; W -0.624 ± 0.091; T -0.322 ± 0.082; L -0.677 ± 0.081; D -0.262 ± 0.14; K -0.115 ± 0.11; I -0.51 ± 0.23; Q -0.462 ± 0.085; F -0.567 ± 0.24
G2: C -0.448 ± 0.35; L -0.465 ± 0.18; W -0.674 ± 0.14; T -0.439 ± 0.2; R -0.447 ± 0.084; K -0.565 ± 0.13; Q -0.17 ± 0.11; A -0.133 ± 0.1; V -0.209 ± 0.11; S -0.194 ± 0.082; M -0.189 ± 0.29; E 0.017 ± 0.096; P 0.07 ± 0.31
K1: C -0.775 ± 0.34; G -0.573 ± 0.2; D -0.995 ± 0.17; V -0.825 ± 0.28; S -0.401 ± 0.22; L -0.211 ± 0.21; E -0.136 ± 0.086
A20: L -0.199 ± 0.083; M -0.317 ± 0.1; Q -0.095 ± 0.12; S -0.049 ± 0.096; C -0.442 ± 0.18; I -0.696 ± 0.13; W -0.295 ± 0.1; E -0.082 ± 0.11; K -0.337 ± 0.22; G 0.065 ± 0.074; T -0.196 ± 0.14; V -0.202 ± 0.11; R -0.038 ± 0.083; Y -0.367 ± 0.22; P -0.292 ± 0.2
S8: Y -0.514 ± 0.13; H -0.461 ± 0.17; Q -0.063 ± 0.11; N -0.384 ± 0.13; L -0.106 ± 0.091; I 0.19 ± 0.37; F -0.399 ± 0.15; A -0.144 ± 0.083; M -0.343 ± 0.12; V -0.187 ± 0.077; C -0.581 ± 0.093; W -0.527 ± 0.095; E -0.08 ± 0.1; D -0.066 ± 0.098; K -0.107 ± 0.13; R -0.169 ± 0.068; G 0.034 ± 0.068
G9: S -0.795 ± 0.08; Q -0.342 ± 0.14; W -1.51 ± 0.12; L -0.629 ± 0.13; P -0.213 ± 0.092; T -0.22 ± 0.092; V -0.334 ± 0.077; M -0.269 ± 0.1; A -0.339 ± 0.074; D 0.111 ± 0.09; E 0.006 ± 0.085; N -0.248 ± 0.25
Y18: R -0.153 ± 0.08; F -0.089 ± 0.46; D -0.088 ± 0.13; Q 0.107 ± 0.11; C -0.106 ± 0.1; P -0.066 ± 0.087; A -0.03 ± 0.075; L -0.353 ± 0.078; W -0.047 ± 0.11; I -0.318 ± 0.14; V -0.27 ± 0.096; M 0.098 ± 0.14; S -0.059 ± 0.076; G 0.034 ± 0.071; H -0.016 ± 0.12; E 0.058 ± 0.095; N 0.083 ± 0.093; T -0.082 ± 0.13
L11: C -0.567 ± 0.087; Y -0.656 ± 0.49; R -0.344 ± 0.07; M 0.038 ± 0.13; H 0.297 ± 0.17; E 0.05 ± 0.094; N -0.243 ± 0.45; S -0.134 ± 0.073; W -0.388 ± 0.074; P -0.116 ± 0.086; G -0.064 ± 0.067; I -0.369 ± 0.17; K -0.025 ± 0.12; D -0.428 ± 0.12; T -0.079 ± 0.092; A 0.075 ± 0.071; Q 0.087 ± 0.092
